# In US20100215619A1:
# Legend:
# [1] = target: HLA-DRB1*0101 (human); test: competition binding; conditions: modification not given
# [2] = target: HLA-DRB4*0101 (human); test: competition binding; conditions: modification not given
IC50 [1] [nM],IC50 [2] [µM],Binder
456,,GTLRGYYNQSEAGSH [p15]
,90,VGYVDDTQFVRFDSD [p6]
